The results in this text go back to paper PMC8476561 (2021).

This assay concerns the target SARS-CoV-2 RBD (wild type) (SARS-CoV-2, UniProt P0DTC2 319-541). In words: SPR. A general note: In SPR one partner is held on a chip, and binding of the other changes the refractive index at the surface.

A value given as a limit tells only on which side of the number the result lay.

B1: Mouse angiotensin-converting enzyme 2 (receptor)
chain: SLTEENAKTFLNNFNQEAEDLSYQSSLASWNYNTNITEENAQKMSEAAAKWSAFYEEQSKTAQSFSLQEIQTPIIKRQLQALQQSGSSALSADKNKQLNTILNTMSTIYSTGKVCNPKNPQECLLLEPGLDEIMATSTDYNSRLWAWEGWRAEVGKQLRPLYEEYVVLKNEMARANNYNDYGDYWRGDYEAEGADGYNYNRNQLIEDVERTFAEIKPLYEHLHAYVRRKLMDTYPSYISPTGCLPAHLLGDMWGRFWTNLYPLTVPFAQKPNIDVTDAMMNQGWDAERIFQEAEKFFVSVGLPHMTQGFWANSMLTEPADGRKVVCHPTAWDLGHGDFRIKMCTKVTMDNFLTAHHEMGHIQYDMAYARQPFLLRNGANEGFHEAVGEIMSLSAATPKHLKSIGLLPSDFQEDSETEINFLLKQALTIVGTLPFTYMLEKWRWMVFRGEIPKEQWMKKWWEMKREIVGVVEPLPHDETYCDPASLFHVSNDYSFIRYYTRTIYQFQFQEALCQAAKYNGSLHKCDISNSTEAGQKLLKMLSLGNSEPWTKALENVVGARNMDVKPLLNYFQPLFDWLKEQNRNSFVGWNTEWSPYADQSIKVRISLKSALGANAYEWTNNEMFLFRSSVAYAMRKYFSIIKNQTVPFLEEDVRVSDLKPRVSFYFFVTSPQNVSDVIPRSEVEDAIRMSRGRINDVFGLNDNSLEFLGIHPTLEPPYQPPV
The Kd is a measure of binding affinity in units of concentration. A low value points to tighter binding. In the case of B1, the Kd was > 1000 µM.
